Test results published in US20240010735A1 (EISAI R AND D MANAGEMENT, published 2024).

How the values were obtained:
Experiment in all cases: ELISA: Fc-His proteins (1 nM) captured on anti-6-His antibody, antibody B 10 µg/mL with human IgG 100 µg/mL, HRP anti-human kappa light chain antibody, OD450 as % of mouse EphA4-Fc-His
[1] = biological target: T1, mouse EphA1 extracellular region-Fc-His protein (mouse; human, UniProt Q60750 27-548)
T1 construct: extracellular domain; not shown: Fc region of human IgG1; histidine tag
T1 sequence (looked up): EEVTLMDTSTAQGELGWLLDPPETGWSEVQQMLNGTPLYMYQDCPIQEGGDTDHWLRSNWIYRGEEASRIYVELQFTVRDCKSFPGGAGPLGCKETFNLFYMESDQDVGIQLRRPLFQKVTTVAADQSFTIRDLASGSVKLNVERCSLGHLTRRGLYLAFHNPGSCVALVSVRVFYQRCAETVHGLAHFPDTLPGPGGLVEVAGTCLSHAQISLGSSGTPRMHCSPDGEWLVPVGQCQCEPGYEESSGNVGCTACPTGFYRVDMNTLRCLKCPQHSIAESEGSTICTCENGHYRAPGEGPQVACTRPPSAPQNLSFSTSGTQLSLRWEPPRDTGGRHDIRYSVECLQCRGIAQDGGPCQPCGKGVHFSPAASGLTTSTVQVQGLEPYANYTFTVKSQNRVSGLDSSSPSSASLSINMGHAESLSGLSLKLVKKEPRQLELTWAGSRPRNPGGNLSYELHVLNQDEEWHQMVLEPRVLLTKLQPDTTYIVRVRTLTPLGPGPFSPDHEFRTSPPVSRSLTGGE
Protocol: (§1) Rabbit anti-6-His antibodies (Bethyl Laboratories) were coated onto the wells of a 96-well plate (Nunc). After incubating at 4° C. overnight, the wells were blocked at room temperature for 1 hour by 1% Block Ace (DS Pharma Biomedical). After washing 3 times with 0.05% Tween 20/PBS (Thermo […]), each Eph receptor of mouse extracellular region-Fc-His protein (final concentration 1 nM) was seeded into each well, and incubated at room temperature for 1 hour. After washing 3 times, human IgG solution (100 μg/mL, Sigma) and antibody B (10 μg/mL) were supplemented to the wells, and incubated at room temperature for 1 hour. Horseradish peroxidase-labeled goat anti-human Kappa Light Chain antibody (IBL) was added, and incubated at room temperature for 1 hour. After washing 3 times, TMBZ (3,3′,5,5′-tetramethylbenzidine, Sigma) solution was added to the wells, and upon confirmation of modest coloring, an equal amount of quenching solution (1 N H₂SO₄, Wako Pure Chemicals) was added to the wells, and absorbance at 450 nm was read by a microplate reader (PerkinElmer).

[2] = biological target: T2, mouse EphB6 extracellular region-Fc-His protein (mouse; human, UniProt O08644 33-591)
T2 construct: extracellular domain; not shown: Fc region of human IgG1; histidine tag
T2 sequence (looked up): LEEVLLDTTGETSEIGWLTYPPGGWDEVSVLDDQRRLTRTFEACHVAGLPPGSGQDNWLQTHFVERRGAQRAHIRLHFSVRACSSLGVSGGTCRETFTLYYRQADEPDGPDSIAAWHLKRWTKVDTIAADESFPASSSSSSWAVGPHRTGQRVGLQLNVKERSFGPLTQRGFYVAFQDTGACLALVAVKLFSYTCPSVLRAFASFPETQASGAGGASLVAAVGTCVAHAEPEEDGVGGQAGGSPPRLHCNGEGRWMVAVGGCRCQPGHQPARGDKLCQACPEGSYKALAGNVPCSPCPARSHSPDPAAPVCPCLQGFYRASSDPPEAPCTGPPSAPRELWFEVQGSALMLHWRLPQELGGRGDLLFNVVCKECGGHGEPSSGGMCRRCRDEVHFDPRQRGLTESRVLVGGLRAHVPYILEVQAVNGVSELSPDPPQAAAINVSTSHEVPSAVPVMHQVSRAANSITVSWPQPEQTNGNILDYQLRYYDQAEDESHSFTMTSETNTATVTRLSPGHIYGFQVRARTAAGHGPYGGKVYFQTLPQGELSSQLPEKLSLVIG
Protocol: as §1

[3] = biological target: T3, mouse EphA8 extracellular region-Fc-His protein (mouse; human, UniProt O09127 27-541)
T3 construct: extracellular domain; not shown: Fc region of human IgG1; histidine tag
T3 sequence (looked up): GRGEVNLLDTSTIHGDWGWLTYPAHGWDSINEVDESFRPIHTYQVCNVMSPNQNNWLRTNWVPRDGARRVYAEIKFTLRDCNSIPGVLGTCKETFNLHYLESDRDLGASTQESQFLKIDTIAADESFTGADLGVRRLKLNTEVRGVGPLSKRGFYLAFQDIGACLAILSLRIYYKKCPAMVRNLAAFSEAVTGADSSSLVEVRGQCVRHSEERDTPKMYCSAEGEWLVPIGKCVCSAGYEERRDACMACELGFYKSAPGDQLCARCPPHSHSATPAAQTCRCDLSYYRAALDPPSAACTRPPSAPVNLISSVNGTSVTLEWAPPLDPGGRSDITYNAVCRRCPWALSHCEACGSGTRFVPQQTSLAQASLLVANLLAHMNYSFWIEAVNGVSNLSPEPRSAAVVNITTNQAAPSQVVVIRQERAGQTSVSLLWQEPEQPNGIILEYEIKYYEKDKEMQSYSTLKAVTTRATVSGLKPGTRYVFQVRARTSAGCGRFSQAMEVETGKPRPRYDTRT
Protocol: as §1

Measured: binding result

B1: humanized anti-EphA4 monoclonal antibody (antibody B) (antibody, human IgG2, V domains shown)
VH: QVQLVESGGGVVQPGRSLRLSCAVSGFSLTRFGVHWVRQAPGKGLEWVAVIWRGGSTDYNAAFMSRLTISKDNSKNTVYLQMNSLRAEDTAVYYCAKESLFGVYYDYGYYSMDYWGQGTTVTVSS
VL: DIQMTQSPSSLSASVGDRVTITCRASQEISGYLSWLQQKPGKAPKRLIYAASTLDSGVPSRFSGSRSGTEYTLTISSLQPEDFATYYCLQYASYPLTFGGGTKVEIKR
notes: expressed in Expi293F cells; also called humanized antibody of antibody A; HK2-42 / L1-8
no binding (tested: 10 µg/mL): [1] | [2] | [3]
